Molecular target: Recombinant human HER3-Fc chimera protein (Homo sapiens, UniProt P21860)
Experiment: BLI

Recombinant human HER3-Fc chimera protein, sequence (P21860 20-643, change not shown): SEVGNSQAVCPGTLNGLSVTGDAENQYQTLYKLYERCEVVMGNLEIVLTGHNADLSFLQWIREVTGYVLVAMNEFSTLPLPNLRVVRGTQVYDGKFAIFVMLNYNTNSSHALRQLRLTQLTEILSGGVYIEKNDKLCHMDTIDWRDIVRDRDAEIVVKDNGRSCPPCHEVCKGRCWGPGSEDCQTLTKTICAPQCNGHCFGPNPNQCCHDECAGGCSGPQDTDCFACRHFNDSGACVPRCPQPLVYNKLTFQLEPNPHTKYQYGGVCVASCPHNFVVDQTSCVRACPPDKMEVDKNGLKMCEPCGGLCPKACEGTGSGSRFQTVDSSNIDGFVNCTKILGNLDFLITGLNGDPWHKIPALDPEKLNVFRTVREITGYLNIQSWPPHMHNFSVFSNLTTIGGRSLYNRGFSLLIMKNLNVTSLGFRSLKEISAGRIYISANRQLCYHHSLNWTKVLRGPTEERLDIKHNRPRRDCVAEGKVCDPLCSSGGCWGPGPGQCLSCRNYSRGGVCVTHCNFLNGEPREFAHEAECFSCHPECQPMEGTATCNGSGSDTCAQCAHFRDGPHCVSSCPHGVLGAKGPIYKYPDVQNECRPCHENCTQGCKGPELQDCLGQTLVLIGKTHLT

Row | Binder | Kd [nM]
1 | anti-HER3 scFv (scFv, V domains shown) VH: not shown VL: DIQMTQSPSSLSASVGDRVTITCRASQGISNYLAWYQQKPGKAPKLLIYAASSLQSGVPSRFSGSRSGTDFTLTISSLQPEDFATYYCQQYGWLPLTFGQGTKVEIK | 20 ± 1.4
2 | IRDye800CW-labeled anti-HER3 scFv (scFv, V domains shown) VH: not shown VL: DIQMTQSPSSLSASVGDRVTITCRASQGISNYLAWYQQKPGKAPKLLIYAASSLQSGVPSRFSGSRSGTDFTLTISSLQPEDFATYYCQQYGWLPLTFGQGTKVEIK | 29 ± 3.7

Reference: article PMC6160764 (Theranostics, 2018)
